US20190338048A1
Where two headings read alike, the source gives them in different places. Each block holds one substance with its values, some of them ahead of it.

What was measured:
[1] = target: Recombinant human IL-17A (human) (UniProt Q16552); test: SPR
[2] = target: Recombinant human IL-17A (human) (UniProt Q16552); test: SPR, IL-17A immobilised, purified Fab injected
[3] = target: CAT-2200 Fab heavy chain S188K; test: LCCA
[4] = target: CR8071 lambda light chain L1 with S176K_Y178K; test: SMCA System C: four chains co-expressed, protein A, LC-MS
[5] = target: CR8071 lambda light chain L1 with S176K_Y178K; test: as above; remark: listed apart in the source
[6] = target: CR8071 lambda light chain L1 with S176E_Y178E; test: as above
[7] = target: CR8071 lambda light chain E124Q_T131R (L1 of design 3025, system C); test: SMCA LC-MS
[8] = target: CR8071 lambda light chain K129T_S180E (L1 of design 3878, system C); test: SMCA LC-MS
[9] = target: CR8071 lambda light chain V133D_Y178T (L1 of designs 3113 and 3122, system C); test: SMCA LC-MS
[10] = target: CR8071 lambda light chain V133D_Y178T (L1 of designs 3113 and 3122, system C); test: SMCA LC-MS; remark: listed apart in the source
[11] = target: Design 3890 L1: CR8071 lambda light chain S122D_K129T_S180E; test: SMCA: H1, L1, H2, L2 co-expressed, protein A, LC-MS
[12] = target: Pertuzumab kappa light chain P44F_V133G_S176D_T180E; test: LCCA, SPR tag read-out
[13] = target: CAT-2200 lambda light chain E124Q_T131R; test: LCCA, SPR tag read-out
[14] = target: Pertuzumab kappa light chain P44F_V133G_S176D_T180E; test: LCCA, SPR tag read-out; remark: listed apart in the source
[15] = target: Pertuzumab kappa light chain P44F_Q124R_T178R; test: LCCA, SPR tag read-out
[16] = target: Pertuzumab kappa light chain V133G_S176D_T180E (L2), N-terminal HA tag; test: LCCA, SPR of light chain tags
[17] = target: Pertuzumab kappa light chain V133G_S176D_T180E (L2), N-terminal HA tag; test: LCCA, SPR of light chain tags; remark: listed apart in the source
[18] = target: CAT-2200 lambda light chain S176K_Y178L (L1), N-terminal FLAG tag; test: LCCA, SPR of light chain tags
[19] = target: Pertuzumab kappa light chain V133G_S176D_T180E (L2), N-terminal HA tag; test: LCCA, SPR of light chain tags; remark: listed apart in the source
[20] = target: CAT-2200 lambda light chain S176K_Y178R (L1), N-terminal FLAG tag; test: LCCA, SPR of light chain tags
[21] = target: Pertuzumab kappa light chain V133G_S176D_T180E (L2), N-terminal HA tag; test: LCCA, SPR of light chain tags; remark: listed apart in the source
[22] = target: CAT-2200 lambda light chain S176K_Y178K (L1), N-terminal FLAG tag; test: LCCA, SPR of light chain tags
[23] = target: SGN-CD19a kappa light chain L2 with S131R_V133G_S176R; test: SMCA System C: four chains co-expressed, protein A, LC-MS
[24] = target: SGN-CD19a kappa light chain L2 with S131R_V133G_S176R; test: SMCA System B: four chains co-expressed, protein A, LC-MS
[25] = target: SGN-CD19a kappa light chain L2 with V133G_S176D; test: SMCA System C: four chains co-expressed, protein A, LC-MS
[26] = target: SGN-CD19a kappa light chain L2 with V133G_S176D; test: SMCA System B: four chains co-expressed, protein A, LC-MS
[27] = target: SGN-CD19a kappa light chain L2 with V133G_S176D_T178E; test: SMCA System C: four chains co-expressed, protein A, LC-MS
[28] = target: SGN-CD19a kappa light chain L2 with V133G_S176D_T178E; test: SMCA System B: four chains co-expressed, protein A, LC-MS
[29] = target: SGN-CD19a kappa light chain L2 with V133G_S176D_T180E; test: SMCA System C: four chains co-expressed, protein A, LC-MS
[30] = target: SGN-CD19a kappa light chain L2 with V133G_S176D_T180E; test: SMCA System B: four chains co-expressed, protein A, LC-MS
[31] = target: SGN-CD19a kappa light chain L2 with Q124E_V133D; test: SMCA System C: four chains co-expressed, protein A, LC-MS
[32] = target: SGN-CD19a kappa light chain L2 with Q124E_V133D; test: SMCA System B: four chains co-expressed, protein A, LC-MS
[33] = target: SGN-CD19a kappa light chain S176K_T178K (L2 of design 3122, systems B and C); test: SMCA LC-MS
[34] = target: SGN-CD19a kappa light chain S176K_T178K (L2 of design 3122, systems B and C); test: SMCA LC-MS; remark: listed apart in the source
[35] = target: SGN-CD19a kappa light chain S131R_V133G_S176R (L2 of designs 3102 and 3113, systems B and C); test: SMCA LC-MS
[36] = target: SGN-CD19a kappa light chain S131R_V133G_S176R (L2 of designs 3102 and 3113, systems B and C); test: SMCA LC-MS; remark: listed apart in the source
[37] = target: SGN-CD19a kappa light chain S131R_V133G_S176R (L2 of designs 3102 and 3113, systems B and C); test: SMCA LC-MS; remark: listed apart in the source
[38] = target: SGN-CD19a kappa light chain S131R_V133G_S176R (L2 of designs 3102 and 3113, systems B and C); test: SMCA LC-MS; remark: listed apart in the source
[39] = target: SGN-CD19a kappa light chain S121K_Q124R_T178R (L2 of design 3890, system B); test: SMCA LC-MS
[40] = target: SGN-CD19a kappa light chain Q124R_Q160K_T178R (L2 of design 3878, systems B and C); test: SMCA LC-MS
[41] = target: SGN-CD19a kappa light chain Q124R_Q160K_T178R (L2 of design 3878, systems B and C); test: SMCA LC-MS; remark: listed apart in the source
[42] = target: SGN-CD19a kappa light chain S131D_V133G_T178F (L2 of design 3025, systems B and C); test: SMCA LC-MS
[43] = target: SGN-CD19a kappa light chain S131D_V133G_T178F (L2 of design 3025, systems B and C); test: SMCA LC-MS; remark: listed apart in the source

Sequence of Recombinant human IL-17A (human) (Q16552 20-155 limits assumed): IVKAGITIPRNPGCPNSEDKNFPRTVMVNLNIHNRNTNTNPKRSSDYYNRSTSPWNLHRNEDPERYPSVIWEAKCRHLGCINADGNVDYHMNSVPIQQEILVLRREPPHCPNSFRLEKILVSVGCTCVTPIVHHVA

Substance: CAT-2200 Fab, H1 S186R / L1 K129T_S180E
Change in KD of H1L1 Fab vs wild type (log(KD) units) [1]: -0.088
Kd [2]: 0.26 nM

Substance: CR8071 heavy chain H1 with K145T_V177D_S188D
% H1L1 Pairing [4]: 41.5%
Change in % H1L1 Pairing with respect to wild type [4]: -6.9%
% H1L1 Pairing [5]: 62.6%
Change in % H1L1 Pairing with respect to wild type [5]: 14.2%

Substance: CR8071 heavy chain H1 with S188K
% H1L1 Pairing [6]: 94.5%
Change in % H1L1 Pairing with respect to wild type [6]: 12.2%

Substance: CR8071 heavy chain S186K_S188T (H1 of designs 3113 and 3122, system C)
% H1L1 Pairing [9]: 65.8%
Change in % H1L1 Pairing with respect to wild type [9]: -16.5%
% H1L1 Pairing [10]: 76.7%
Change in % H1L1 Pairing with respect to wild type [10]: -5.6%

Substance: Pertuzumab Fab heavy chain L45P_L124R_Q179K
H2L2:H2L1 median scalar value [12]: 1.45 ln(ratio)
H2L2:H2L1 normalized median ratio [12]: 81%
H2L2:H2L1 normalized median ratio [13]: 14%
H2L2:H2L1 median scalar value [14]: 1.84 ln(ratio)
H2L2:H2L1 normalized median ratio [14]: 86%

Substance: Pertuzumab Fab heavy chain L45P_L143E_K145T_Q179E
H2L2:H2L1 median scalar value [15]: 3.81 ln(ratio)
H2L2:H2L1 normalized median ratio [15]: 98%

Substance: Pertuzumab Fab heavy chain L124R_S186R (H2), ABD2-His6 tagged
H2L2:H2L1 normalized median scalar value ln(r1/f1) [16]: 0.98
H2L2:H2L1 normalized median scalar value ln(r1/f1) [17]: 1.06
H2L2:H2L1 normalized median ratio [18]: 27%
H2L2:H2L1 normalized median scalar value ln(r1/f1) [19]: 1.21
H2L2:H2L1 normalized median ratio [22]: 26%
H2L2:H2L1 normalized median scalar value ln(r1/f1) [21]: 1.17

Substance: SGN-CD19a heavy chain H2 with L124R
% H2L2 Pairing [25]: 99.5%
Change in % H2L2 Pairing with respect to wild type [25]: 19.9%
% H2L2 Pairing [26]: 94.6%
Change in % H2L2 Pairing with respect to wild type [26]: 40.4%

Substance: SGN-CD19a heavy chain H2 with L124R_S186K
% H2L2 Pairing [27]: 99.6%
Change in % H2L2 Pairing with respect to wild type [27]: 20%
% H2L2 Pairing [28]: 98.8%
Change in % H2L2 Pairing with respect to wild type [28]: 44.6%

Substance: SGN-CD19a heavy chain H2 with L143K
% H2L2 Pairing [31]: 99.6%
Change in % H2L2 Pairing with respect to wild type [31]: 20%
% H2L2 Pairing [32]: 94.3%
Change in % H2L2 Pairing with respect to wild type [32]: 40.1%

Substance: SGN-CD19a heavy chain L143E_K145T_S188L (H2 of design 3878, systems B and C)
% H2L2 Pairing [40]: 67.4%
Change in % H2L2 Pairing with respect to wild type [40]: 7.5%
% H2L2 Pairing [41]: 28.7%
Change in % H2L2 Pairing with respect to wild type [41]: -8.9%

Next, values leading:

Change in KD of H1L1 Fab vs wild type (log(KD) units) [1]: -0.056
Kd [2]: 0.24 nM
Substance: CAT-2200 Fab, H1 Q179K / L1 K129T_S180E

H1L1:H1L2 median scalar value (ln(H1L1:H1L2)) [3]: 1.8
Substance: CAT-2200 lambda light chain K129T_S176E_Y178E

H1L1:H1L2 median scalar value (ln(H1L1:H1L2)) [3]: 1.01
Substance: CAT-2200 lambda light chain S176E_Y178E

% H1L1 Pairing [7]: 43.9%
Change in % H1L1 Pairing with respect to wild type [7]: -4.5%
Substance: CR8071 heavy chain L143D_K145T (H1 of design 3025, system C)

% H1L1 Pairing [8]: 99.3%
Change in % H1L1 Pairing with respect to wild type [8]: 17%
Substance: CR8071 heavy chain Q179K (H1 of design 3878, system C)

% H1L1 Pairing [11]: 98.4%
Change in % H1L1 Pairing with respect to wild type [11]: 30.3%
Substance: Design 3890 H1: CR8071 heavy chain A125R_Q179K

H2L2:H2L1 normalized median scalar value ln(r1/f1) [16]: 0.67
H2L2:H2L1 normalized median scalar value ln(r1/f1) [17]: 0.75
H2L2:H2L1 normalized median ratio [18]: 34%
H2L2:H2L1 normalized median scalar value ln(r1/f1) [19]: 0.63
H2L2:H2L1 normalized median ratio [20]: 31%
H2L2:H2L1 normalized median scalar value ln(r1/f1) [21]: 0.79
Substance: Pertuzumab Fab heavy chain L124R_Q179K (H2), ABD2-His6 tagged

% H2L2 Pairing [23]: 99.5%
Change in % H2L2 Pairing with respect to wild type [23]: 39.6%
% H2L2 Pairing [24]: 77.3%
Change in % H2L2 Pairing with respect to wild type [24]: 39.7%
Substance: SGN-CD19a heavy chain H2 with L124E_K145T_Q179E

% H2L2 Pairing [29]: 99.5%
Change in % H2L2 Pairing with respect to wild type [29]: 28.2%
% H2L2 Pairing [30]: 98.6%
Change in % H2L2 Pairing with respect to wild type [30]: 44.4%
Substance: SGN-CD19a heavy chain H2 with L124R_S186R

% H2L2 Pairing [33]: 99.8%
Change in % H2L2 Pairing with respect to wild type [33]: 39.9%
% H2L2 Pairing [34]: 89.7%
Change in % H2L2 Pairing with respect to wild type [34]: 52.1%
Substance: SGN-CD19a heavy chain K145T_V177D_S188D (H2 of design 3122, systems B and C)

% H2L2 Pairing [35]: 99.8%
Change in % H2L2 Pairing with respect to wild type [35]: 39.9%
% H2L2 Pairing [36]: 99.6%
Change in % H2L2 Pairing with respect to wild type [36]: 39.7%
% H2L2 Pairing [37]: 92.8%
Change in % H2L2 Pairing with respect to wild type [37]: 55.2%
% H2L2 Pairing [38]: 90.9%
Change in % H2L2 Pairing with respect to wild type [38]: 53.3%
Substance: SGN-CD19a heavy chain L124E_K145T_Q179E (H2 of designs 3102 and 3113, systems B and C)

% H2L2 Pairing [39]: 51.3%
Change in % H2L2 Pairing with respect to wild type [39]: -2.9%
Substance: SGN-CD19a heavy chain L143E_K145T_K228D (H2 of design 3890, system B)

% H2L2 Pairing [42]: 87.9%
Change in % H2L2 Pairing with respect to wild type [42]: 33.7%
% H2L2 Pairing [43]: 99.7%
Change in % H2L2 Pairing with respect to wild type [43]: 20.1%
Substance: SGN-CD19a heavy chain S188K (H2 of design 3025, systems B and C)
